This data set deals with G-actin in human serum.

B1: wild-type human DNase I (protein)
chain: LKIAAFNIQTFGETKMSNATLVSYIVQILSRYDIALVQEVRDSHLTAVGKLLDNLNQDAPDTYHYVVSEPLGRNSYKERYLFVYRPDQVSAVDSYYYDDGCEPCGNDTFNREPAIVRFFSRFTEVREFAIVPLHAAPGDAVAEIDALYDVYLDVQEKWGLEDVMLMGDFNAGCSYVRPSQWSSIRLWTSPTFQWLIPDSADTTATPTHCAYDRIVVAGMLLRGAVVPDSALPFNFQAAYGLSDQLAQAISDHYPVEVMLK
As for B1, the Average T50 (min) 50% DNA hydrolysis in human serum was 28 min and the “Time T50 (min) 50% DNA hydrolysis in human serum” value is 26; 28; 30.

B2: actin-resistant version of DNase I, arDNase (+1), substitution A114R (protein)
chain: LKIAAFNIQTFGETKMSNATLVSYIVQILSRYDIALVQEVRDSHLTAVGKLLDNLNQDAPDTYHYVVSEPLGRNSYKERYLFVYRPDQVSAVDSYYYDDGCEPCGNDTFNREPRIVRFFSRFTEVREFAIVPLHAAPGDAVAEIDALYDVYLDVQEKWGLEDVMLMGDFNAGCSYVRPSQWSSIRLWTSPTFQWLIPDSADTTATPTHCAYDRIVVAGMLLRGAVVPDSALPFNFQAAYGLSDQLAQAISDHYPVEVMLK
For B2, the Average T50 (min) 50% DNA hydrolysis in human serum was 3 min and the “Time T50 (min) 50% DNA hydrolysis in human serum” value was 2; 3; 4.
